To fix the notation:
B1: PRT-113 (protein)
chain: MRNATEAYAKEVPHTITSVWTKGVTPPTPEQFTYYNEDVFHAPYLAHQGWYDITKTFNGKDNLLCGAATAGNMLHWWFDQNKTEIEAYLSKHPEKQKIIFNNQELFDLKAAIDTKDSQTNSQLFNYFKDKAFPNLSARQLGVMPDLVLDMFINGYYLNVFKTQSTDVNRPYQDKDKRGGIFDAVFTRGDQTKLLTARHDLKNKGLNDISDLIKQELTEGKALALSHTYANVSINHVINLWGADFNAEGNLEAIYVTDSDANASIGMKKYFVGINASGKVAISAKKIEGENIGAQVLGLFTLSSGKDIWQKLS
B2: PRT-83 (protein)
chain: MANQEIRYSEETPYHVTSVWTKGVTPPEKFTQGEDVFHAPYVANQGWYDITKTFNGKDDLLCGAATAGNMLHWWFDQNKDQIEAYLSKHPEKQKIMFGDQELLDVRKAINTKDSQTNSELFNYFRDKAFPNLSARRLGVMPDLVLDMFINGYRLNVTKTQTTDVNETYQEKDKRGGIFDAVFTRGDQSKLLTSRHDFKEKTLNEISDLIKKELTEGKALGISHTYANVRINHVINLWGADFNSEGNLEAIYVTDSDSNASIGMKKYFVGVNSAGKVAISAKEIEEENIGAQVLGLFTLSTGQDIWQQTN
B3: PRT-82 (protein)
chain: MANQEIRYSEVTPSTITSVWTKGVTPPAQFIQNEDVFHAPYVANQGWYDITKTFNGKDDLLCGAATAGNMLHWWFDQNKEEIEAYLKKHPEKQKIMFGDQELLDVRKVINTKDDQTNSALFNYFKDKAFPNLSARRLGVMPDLVLDMFINGYYLNVGKTQTTDVNRTYQNKDRRGGIFDAVFTRGDQSKLLTARHDFKEKNLNEISDLIKQELTEGKALALSHTYANVSINHVINLWGADFDANGNLEAIYVTDSDSNASIGMKKYFVGVNSAGKVAISAKEIEEDNIGAQVLGLFTLSTGQDIWNKTN
B4: PRT-8 (protein)
chain: MANQEIRYSEVTPYHVTSVWTKGVTPPTNFTQGEDVFHAPYIANQGWYDITKTFNGKDDLLCGAATAGNMLHWWFDQNKDQIERYLKEHPEKQKINFNGEQMFDVKEAIDTKNSQLDSKLFEYFKEKAFPYLSTKHLGVFPDHVLDMFINGYRLSLTNHGPTPVKEGSKDPRGGIFDAVFTRGDQSKLLTSRHDFKEKNLKEISDLIKQELTEGKALGLSHTYANVRINHVINLWGADFDSNGNLEAIYVTDSDSNASIGMKKYFVGVNSAGKVAISAKEIKDDNIGAQVLGLFTLSTGQDIWNQTN
B5: PRT-111 (protein)
chain: MRNATEAYAKEVPHQITSVWTKGVTPPTPEQFRYNNEDVFHAPYLAHQGWYDITKTFNGKDNLLCGAATAGNMLHWWFDQNKTEIEAYLKKHPEKQKIIFNNQELFDLKAAIDTKDSQTNSQLFNYFRDKAFPNLSARQLGVMPDLVLDMFINGYYLNVFKTQSTDVNRPYQDKDKRGGIFDAVFTRGDQTTLLTNRHDLKNKGLNDISTLIKQELTEGKALALSHTYANVSISHVINLWGADFNAEGNLEAIYVTDSDANASIGMKKYFVGINSAGHVAISAKKIEGENIGAQVLGLFTLSSGKDIWQKLS
B6: PRT-81 (protein)
chain: MANQEIRYSEVTPSHVTSVWTKGVTPPADFTQGEDVFHAPYVANQGWYDITKTFNGKDNLLCGAATAGNMLHWWFDQNKEQIENYLKKHPEKQKIMFGDQELLDVRKVINTKDSQTNSALFNYFRDKAFPNLSARRLGVMPDLVLDMFINGYYLNLTKTQTTDVNRTYQTKDKRGGIFDAVFTRGDQSKLLTSRHDFKEKTLKEISDLIKQELTEGKALGLSHTYANVRINHVINLWGADFDSNGNLKAIYVTDSDSNASIGMKKYFVGVNSAGKVAISAKEITEDNIGAQVLGLFTLSTGKDQWNQTN
B7: PRT-7 (protein)
chain: MANQEIRYSEETPYHVTSVWTKGVTPPANFTQGEDVFHAPYVANQGWYDITKTFNGKDDLLCGAATAGNMLHWWFDQNKDQIERYLKKHPEKQKINFNGEQMFDVKEAIDTKDSQTDSKLFEYFKEKAFPYLSTKHLGVFPDHVIDMFINGYRLSLTNHGPTPVKEGSKDPRGGIFDAVFTRGDQSKLLTSRHDFKEKNLKEISDLIKKELTEGKALGLSHTYANVRINHVINLWGADFDSNGNLKAIYVTDSDSNASIGMKKYFVGVNSAGKVAISAKEIKEDNIGAQVLGLFTLSTGQDIWEQTN
B8: PRT-9 (protein)
chain: B7 chain with D80E, K88E, D113N, T116L, N199T, G218A, T298S, E304N
B9: PRT-112 (protein)
chain: MRNATEAYAKEVPHKITSVWTKGVTPLTPEQFRYNGEDVIHAPYLANQGWYDITKTFDGKDNLLCGAATAGNMLHWWFDQNKTEIEAYLKKHPEKQKIIFNNQELFDLKAAIDTKDSQTNSALFNYFKDKAFPNLSARQLGVMPDHVLDMFINGYYLNVFKTQSTDVNRPYQDKDKRGGIFDAVFTRGDQTKLLTARHDLKNKGLNEISTLIKQELTEGKALALSHTYANVSISHVINLWGADFNAEGNLEAIYVTDSDANASIGMKKYFVGVNASGKVAISAKKIEGENIGAQVLGLFTLSSGKDIWQKLS

Where a chain is given by its changes, count along the chain named.

The series addresses pooled human IgG.
Protein B1 returned an Enzyme Activity Endpoint Assay (purified): Fab'2 of 656 ng/µL, an Enzyme Activity Endpoint Assay (purified): Fc of 189 ng/µL, an Enzyme Activity Endpoint Assay (purified): IgG of 0 ng/µL and an Enzyme Activity Endpoint Assay (purified): scIgG of 0 ng/µL.

B2 came in with an Enzyme Activity Endpoint Assay (purified): Fab′2 of 0 ng/µL, an Enzyme Activity Endpoint Assay (purified): Fc of 44 ng/µL, an Enzyme Activity Endpoint Assay (purified): IgG of 42 ng/µL and an Enzyme Activity Endpoint Assay (purified): scIgG of 40 ng/µL.

With B3, the Enzyme Activity Endpoint Assay (purified): Fab′2 is 9 ng/µL, the Enzyme Activity Endpoint Assay (purified): Fc amounted to 67 ng/µL, the Enzyme Activity Endpoint Assay (purified): IgG was determined as 15 ng/µL and the Enzyme Activity Endpoint Assay (purified): scIgG worked out at 60 ng/µL.

Turning to B4, the Enzyme Activity Endpoint Assay: Fab′2 worked out at 50 ng/µL, the Enzyme Activity Endpoint Assay: Fc was 127 ng/µL, the Enzyme Activity Endpoint Assay: IgG stood at 16 ng/µL and the Enzyme Activity Endpoint Assay: scIgG was 16 ng/µL.

B5 gave an Enzyme Activity Endpoint Assay (purified): Fab'2 of 328 ng/µL, an Enzyme Activity Endpoint Assay (purified): Fc of 133 ng/µL, an Enzyme Activity Endpoint Assay (purified): IgG of 26 ng/µL and an Enzyme Activity Endpoint Assay (purified): scIgG of 0 ng/µL.

B6 returned an Enzyme Activity Endpoint Assay (purified): Fab′2 of 14 ng/µL, an Enzyme Activity Endpoint Assay (purified): Fc of 67 ng/µL, an Enzyme Activity Endpoint Assay (purified): IgG of 30 ng/µL and an Enzyme Activity Endpoint Assay (purified): scIgG of 56 ng/µL.

Protein B7 yielded an Enzyme Activity Endpoint Assay: Fab′2 of 50 ng/µL, an Enzyme Activity Endpoint Assay: Fc of 137 ng/µL, an Enzyme Activity Endpoint Assay: IgG of 18 ng/µL and an Enzyme Activity Endpoint Assay: scIgG of 16 ng/µL.

B8 had an Enzyme Activity Endpoint Assay: Fab′2 of 39 ng/µL, an Enzyme Activity Endpoint Assay: Fc of 103 ng/µL, an Enzyme Activity Endpoint Assay: IgG of 21 ng/µL and an Enzyme Activity Endpoint Assay: scIgG of 32 ng/µL.

On to B9, for which the Enzyme Activity Endpoint Assay (purified): Fab'2 was 435 ng/µL, the Enzyme Activity Endpoint Assay (purified): Fc was determined as 152 ng/µL, the Enzyme Activity Endpoint Assay (purified): IgG was found to be 15 ng/µL and the Enzyme Activity Endpoint Assay (purified): scIgG was determined as 0 ng/µL.
